Experimental data as given in the supplement of paper PMC7125110.
± gives the standard error. This sample holds only a part of the variants without activity.

B1: glmS ribozyme (parent)
chain: AUAAAAGCGCCAGAACUACAGAAAUGUAGUUGACGAGGAGGAGGUUUAUCGAAUUUUCGGCGGAUGCCUCCAAA

Key:
Conditions in all cases: with glucosamine-6-phosphate
glucosamine-6-phosphate [1] = variants of: B1; assay: self-cleavage kobs at 40 uM GlcN6P; higher = faster cleavage; RNA array
In short: (§1)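 Glucosamine-6-phosphate, from 40 μM to 10 mM in HEPES/KCl/Mg(OAc)2 buffer, was flowed over sequenced MiSeq chips carrying barcoded ribozyme variants transcribed in situ by E. coli RNA polymerase. A hybridised Cy3 probe tracked the variants at 37 °C as tiles were imaged over ~14 h. kobs, kcat and KM were obtained by fitting normalised per-tile medians to exponential decays and then applying weighted Michaelis–Menten fits across concentrations.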

glucosamine-6-phosphate [2] = variants of: B1; assay: self-cleavage kobs at 2500 uM GlcN6P; higher = faster cleavage; RNA array
In short: as §1

glucosamine-6-phosphate [3] = variants of: B1; assay: self-cleavage kobs at 160 uM GlcN6P; higher = faster cleavage; RNA array
In short: as §1

glucosamine-6-phosphate [4] = variants of: B1; assay: self-cleavage kobs at 640 uM GlcN6P; higher = faster cleavage; RNA array
In short: as §1

glucosamine-6-phosphate [5] = variants of: B1; assay: self-cleavage kobs at 10000 uM GlcN6P; higher = faster cleavage; RNA array
In short: as §1

Variant | self-cleavage kobs at 40 uM GlcN6P (glucosamine-6-phosphate [1]) [s⁻¹] | self-cleavage kobs at 2500 uM GlcN6P (glucosamine-6-phosphate [2]) [s⁻¹] | self-cleavage kobs at 160 uM GlcN6P (glucosamine-6-phosphate [3]) [s⁻¹] | self-cleavage kobs at 640 uM GlcN6P (glucosamine-6-phosphate [4]) [s⁻¹] | self-cleavage kobs at 10000 uM GlcN6P (glucosamine-6-phosphate [5]) [s⁻¹]
U45G U54C G63C A64U U65G | < 1e-05 |  |  |  | 
C61U C68U C70A | < 1e-05 | < 1e-05 |  |  | 
C16A C61U | < 1e-05 | < 1e-05 | < 1e-05 | < 1e-05 | < 1e-05
G63C U65C | < 1e-05 |  |  |  | < 1e-05
A33G U45A C71A | < 1e-05 |  |  |  | < 1e-05
C8G U54C | < 1e-05 | < 1e-05 | < 1e-05 | < 1e-05 | < 1e-05
G13C G60C | < 1e-05 |  | < 1e-05 |  | < 1e-05
G9A G44C | < 1e-05 | < 1e-05 |  | < 1e-05 | 
C11U G29C A53U U56G C70A | 0.000205 ± 4.8e-05 |  |  |  | 0.000369 ± 8.6e-05
U31G A33G | < 1e-05 |  |  | < 1e-05 | < 1e-05
A12C A20U C67G | 9.99e-05 ± 2.5e-05 |  |  |  | 0.00115 ± 0.00024
G9C A14G | < 1e-05 | < 1e-05 | < 1e-05 | < 1e-05 | < 1e-05
G44A G59A | < 1e-05 |  | < 1e-05 | < 1e-05 | < 1e-05
A14G U54G | 0.00166 ± 0.00021 |  | 0.0021 ± 0.00047 | 0.0114 ± 0.003 | 0.023 ± 0.0048
G41U G44U A64U | < 1e-05 |  |  |  | < 1e-05
C11A U30C | < 1e-05 | 4.93e-05 ± 1.8e-05 | < 1e-05 |  | 
C16G U31A | 5.78e-05 ± 2.1e-05 | 0.00117 ± 0.00048 | 4.17e-05 ± 1.9e-05 | 0.000204 ± 8.2e-05 | 0.00174 ± 0.0006
A36G G41A G51C C61G C67U | < 1e-05 |  |  |  | < 1e-05
G51U A53G A64G U65G | < 1e-05 |  |  |  | < 1e-05
G60C G62U | < 1e-05 | < 1e-05 | < 1e-05 |  | < 1e-05
A12C G38A G60A | < 1e-05 |  | < 1e-05 |  | < 1e-05
A12U G59C | < 1e-05 | < 1e-05 | < 1e-05 | < 1e-05 | < 1e-05

Variant | self-cleavage kobs at 40 uM GlcN6P (glucosamine-6-phosphate [1]) [s⁻¹] | self-cleavage kobs at 2500 uM GlcN6P (glucosamine-6-phosphate [2]) [s⁻¹] | self-cleavage kobs at 160 uM GlcN6P (glucosamine-6-phosphate [3]) [s⁻¹] | self-cleavage kobs at 640 uM GlcN6P (glucosamine-6-phosphate [4]) [s⁻¹] | self-cleavage kobs at 10000 uM GlcN6P (glucosamine-6-phosphate [5]) [s⁻¹]
C11A G37U A42U C68U | < 1e-05 |  |  | < 1e-05 | 
C34A U54C | < 1e-05 |  | < 1e-05 | < 1e-05 | < 1e-05
G38U U45C | < 1e-05 | < 1e-05 | < 1e-05 | < 1e-05 | < 1e-05
A12U G13A U47C A53G | < 1e-05 |  |  |  | 
A53G G62A C67U | < 1e-05 |  |  |  | 
G51A A64U | < 1e-05 |  | < 1e-05 |  | 
G41C A42G A53C G63A | < 1e-05 | < 1e-05 |  | < 1e-05 | 
C10U C50U U57C | < 1e-05 |  |  |  | 
G9U A53U | < 1e-05 |  | < 1e-05 | < 1e-05 | < 1e-05
A39G U56C C71U | 7.63e-05 ± 2.3e-05 |  |  |  | 
G41U U54A | 2.71e-05 ± 1.1e-05 | 0.000426 ± 7.7e-05 | 0.000104 ± 1.6e-05 | 0.000174 ± 2.6e-05 | 0.000144 ± 1.7e-05
A42U G44A | < 1e-05 | < 1e-05 | < 1e-05 | < 1e-05 | 
G32A C50G G60A C68G | 6.94e-05 ± 1.7e-05 |  |  |  | 5.25e-05 ± 1.1e-05
G32C U46C | < 1e-05 |  |  |  | 
U49G G51A | < 1e-05 | < 1e-05 | < 1e-05 | < 1e-05 | < 1e-05
C10U C67U C70U | < 1e-05 |  |  |  | < 1e-05
C11G G13A G41U U45G G66A | < 1e-05 |  |  |  | 
C10G G41U | < 1e-05 | < 1e-05 | < 1e-05 | < 1e-05 | < 1e-05
A64C G66C | < 1e-05 |  | < 1e-05 | < 1e-05 | 
G29C A36G G51C | < 1e-05 |  |  |  | 
G41U G44A | < 1e-05 | < 1e-05 | < 1e-05 | < 1e-05 | < 1e-05
